Experimental data as given in the Immune Epitope Database (IEDB).

Columns and labels:
[1] = biological target: HLA-A*02:01; assay: IEDB peptide-MHC binding, purified MHC/competitive/fluorescence; ≥ and ≤ were set here for values at or beyond the usual limits of such assays
[2] = biological target: HLA-A*03:01; assay: as above
[3] = biological target: HLA-A*11:01; assay: as above
[4] = biological target: HLA-A*24:02; assay: as above
[5] = biological target: HLA-B*15:01; assay: as above
[6] = biological target: HLA-B*07:02; assay: IEDB peptide-MHC binding, purified MHC/direct/fluorescence; filed as Kd, often an IC50 or EC50 that approximates it; ≥ and ≤ were set here for values at or beyond the usual limits of such assays
[7] = biological target: HLA-B*51:01; assay: as above
[8] = biological target: HLA-B*15:01; assay: IEDB peptide-MHC binding, purified MHC/competitive/fluorescence; filed as Kd, often an IC50 or EC50 that approximates it; ≥ and ≤ were set here for values at or beyond the usual limits of such assays
[9] = biological target: HLA-A*01:01; assay: IEDB peptide-MHC binding, purified MHC/direct/fluorescence; filed as Kd, often an IC50 or EC50 that approximates it; ≥ and ≤ were set here for values at or beyond the usual limits of such assays
[10] = biological target: HLA-A*02:11; assay: as above; conditions: source organism: Zaire ebolavirus
[11] = biological target: HLA-A*02:12; assay: as above; conditions: source organism: Zaire ebolavirus
[12] = biological target: HLA-A*03:01; assay: as above
[13] = biological target: HLA-A*11:01; assay: as above
[14] = biological target: HLA-A*24:03; assay: as above; conditions: source organism: Zaire ebolavirus
[15] = biological target: HLA-A*29:02; assay: as above
[16] = biological target: HLA-A*31:01; assay: as above; conditions: source organism: Zaire ebolavirus
[17] = biological target: HLA-A*68:02; assay: as above; conditions: source organism: Zaire ebolavirus
[18] = biological target: HLA-A*69:01; assay: as above
[19] = biological target: HLA-B*08:01; assay: as above
[20] = biological target: HLA-B*15:01; assay: as above; conditions: source organism: Zaire ebolavirus
[21] = biological target: HLA-B*27:05; assay: as above; conditions: source organism: Zaire ebolavirus
[22] = biological target: HLA-B*46:01; assay: as above
[23] = biological target: HLA-B*48:01; assay: as above; conditions: source organism: Zaire ebolavirus
[24] = biological target: HLA-B*57:01; assay: as above
[25] = biological target: HLA-B*58:01; assay: as above
[26] = biological target: HLA-A*02:01; assay: IEDB peptide-MHC binding, purified MHC/competitive/fluorescence; filed as Kd, often an IC50 or EC50 that approximates it; ≥ and ≤ were set here for values at or beyond the usual limits of such assays; conditions: source organism: Zaire ebolavirus
[27] = biological target: HLA-A*26:01; assay: as above
[28] = biological target: HLA-B*18:01; assay: as above
[29] = biological target: HLA-B*27:03; assay: as above
[30] = biological target: HLA-B*39:01; assay: as above
[31] = biological target: HLA-A*02:01; assay: IEDB peptide-MHC binding, purified MHC/direct/fluorescence; filed as Kd, often an IC50 or EC50 that approximates it; ≥ and ≤ were set here for values at or beyond the usual limits of such assays
[32] = biological target: HLA-B*08:02; assay: as above
[33] = biological target: HLA-B*18:01; assay: as above; conditions: source organism: Brucella suis
[34] = biological target: HLA-B*40:01; assay: as above; conditions: source organism: Brucella suis
[35] = biological target: HLA-B*44:02; assay: as above; conditions: source organism: Brucella suis
[36] = biological target: HLA-B*15:42; assay: IEDB peptide-MHC binding, purified MHC/competitive/fluorescence; filed as Kd, often an IC50 or EC50 that approximates it; ≥ and ≤ were set here for values at or beyond the usual limits of such assays
[37] = biological target: HLA-B*45:06; assay: as above
[38] = biological target: HLA-B*83:01; assay: as above
[39] = biological target: HLA-A*69:01; assay: as above; conditions: source organism: Homo sapiens
[40] = biological target: HLA-B*15:17; assay: as above; conditions: source organism: Homo sapiens
[41] = biological target: HLA-B*46:01; assay: as above; conditions: source organism: Homo sapiens
[42] = biological target: HLA-B*51:01; assay: as above; conditions: source organism: Homo sapiens
[43] = biological target: HLA-B*57:01; assay: as above; conditions: source organism: Homo sapiens
[44] = biological target: HLA-C*05:01; assay: IEDB peptide-MHC binding, purified MHC/direct/fluorescence; filed as Kd, often an IC50 or EC50 that approximates it; ≥ and ≤ were set here for values at or beyond the usual limits of such assays; conditions: source organism: Mycobacterium tuberculosis variant bovis BCG str. Pasteur 1173P2
[45] = source organism: Sudan ebolavirus
[46] = source organism: Brucella abortus
[47] = source organism: Zaire ebolavirus
[48] = source organism: Vaccinia virus
[49] = source organism: Camelpox virus CMS
[50] = source organism: Vaccinia virus WR
[51] = source organism: Treponema denticola
[52] = source organism: Mycobacterium tuberculosis variant bovis BCG str. Pasteur 1173P2
[53] = source organism: Vibrio vulnificus CMCP6
[54] = source organism: Vibrio vulnificus

ILFQKAFSM showed an IC50 [1, 45] of 0.626 µM, an IC50 [2, 45] of 15.7 µM and an IC50 [3, 45] of 54.8 µM. For the same sequence, the IC50 [4, 45] was 0.336 µM and the IC50 [5, 45] was 4.24 µM.

In the case of RPNPDFNTF, the Kd [6, 46] is reported as 0.0126 µM, the Kd [7, 46] is reported as no less than 20 µM and the Kd ([8]; source organism: Brucella melitensis bv. 1 str. 16M) is reported as 3 µM.

In the case of YDRLASTVI, the IC50 [4, 45] is reported as 2.49 µM, the Kd [9, 47] is reported as no less than 20 µM and the Kd [10] is reported as no less than 20 µM. It also gave a Kd [11] of no less than 20 µM, a Kd [12, 47] of no less than 20 µM and a Kd [13, 47] of no less than 20 µM. For the same sequence, the Kd [14] was no less than 20 µM, the Kd [15, 47] was no less than 20 µM and the Kd [16] was no less than 20 µM. It also gave a Kd [17] of no less than 20 µM, a Kd [18, 47] of no less than 20 µM and a Kd [6, 47] of no less than 20 µM. It also gave a Kd [19, 47] of no less than 20 µM, a Kd [20] of no less than 20 µM and a Kd [21] of no less than 20 µM. For the same sequence, the Kd [22, 47] was no less than 20 µM, the Kd [23] was no less than 20 µM and the Kd [24, 47] was no less than 20 µM. For the same sequence, the Kd [25, 47] was no less than 20 µM, the Kd [26] was no less than 20 µM and the Kd [27, 47] was no less than 20 µM. For the same sequence, the Kd [28, 47] was no less than 20 µM, the Kd [29, 47] was no less than 20 µM and the Kd [30, 47] was no less than 20 µM.

Work on RAFRNLNVT yielded an IC50 [1, 48] of 48.3 µM and an IC50 [5, 48] of no less than 77.9 µM.

Sequence KLFSYGTLI has an IC50 ([1]; source organism: Variola virus) of 0.61 µM, an IC50 ([2]; source organism: Variola virus) of 5.5 µM and an IC50 ([5]; source organism: Variola virus) of 26.2 µM.

For YQRRRRFAI, the Kd ([9]; source organism: Brucella suis) was no less than 20 µM, the Kd ([31]; source organism: Brucella suis) was no less than 20 µM and the Kd ([12]; source organism: Brucella suis) was no less than 20 µM. The Kd ([15]; source organism: Brucella suis) was no less than 20 µM, the Kd ([18]; source organism: Brucella suis) was no less than 20 µM and the Kd ([6]; source organism: Brucella suis) was no less than 20 µM. The Kd ([32]; source organism: Brucella suis 1330) was 0.367 µM, the Kd [33] was no less than 20 µM and the Kd [34] was no less than 20 µM. It also gave a Kd [35] of no less than 20 µM, a Kd ([22]; source organism: Brucella suis) of no less than 20 µM and a Kd ([24]; source organism: Brucella suis) of no less than 20 µM. It also gave a Kd ([25]; source organism: Brucella suis) of no less than 20 µM.

Sequence LMYPTTLLK has a Kd [12, 49] of 0.0045 µM, a Kd [13, 49] of 0.0022 µM and a Kd [36, 50] of no less than 5 µM. It also gave a Kd [37, 50] of no less than 5 µM and a Kd [38, 50] of no less than 5 µM.

Work on SLGDPLHQA yielded a Kd ([27]; source organism: Homo sapiens) of no less than 20 µM, a Kd [39] of no less than 20 µM and a Kd ([8]; source organism: Homo sapiens) of no less than 20 µM. It also gave a Kd [40] of no less than 20 µM, a Kd ([28]; source organism: Homo sapiens) of no less than 20 µM and a Kd ([29]; source organism: Homo sapiens) of no less than 20 µM. The Kd ([30]; source organism: Homo sapiens) was no less than 20 µM, the Kd [41] was no less than 20 µM and the Kd [42] was no less than 20 µM. For the same sequence, the Kd [43] was no less than 20 µM.

For RQDEVGTPF, the Kd [31, 51] was 2.01 µM, the Kd [18, 51] was no less than 20 µM and the Kd [44] was no more than 0.001 µM.

For AVSHLTTLA, the IC50 [1, 47] was 3.08 µM and the IC50 [5, 47] was no less than 135 µM.

Work on HPVTATISF yielded a Kd [36, 52] of no less than 5 µM, a Kd [37, 52] of no less than 5 µM and a Kd [38, 52] of 0.616 µM.

Sequence LPDLPTTTI has a Kd ([7]; source organism: Staphylococcus aureus) of 0.922 µM.

RGRKRFHTL gave a Kd [19, 53] of 0.009 µM and a Kd [32, 53] of 6.76 µM.

For NAFGWENAY, the Kd [6, 54] was 0.35 µM, the Kd [7, 54] was no less than 20 µM and the Kd ([8]; source organism: Vibrio vulnificus YJ016) was 1.32 µM.

YFNVLDEKY was tested, and the IC50 [4, 48] was 33 µM and the IC50 [5, 48] was no less than 283 µM.

SQVPKLLLW showed an IC50 ([5]; source organism: Variola virus) of no less than 121 µM.

IIIAVARKH was tested, and the IC50 ([1]; source organism: Variola virus) was 50.9 µM, the IC50 ([2]; source organism: Variola virus) was 35.5 µM and the IC50 ([3]; source organism: Variola virus) was 14.5 µM. The IC50 ([4]; source organism: Variola virus) was 2.98 µM and the IC50 ([5]; source organism: Variola virus) was 36.4 µM.
